Experimental data reported in publication PMC8730436.

Tested on: RplI (ribosomal large subunit protein L9) (Pseudomonas aeruginosa mPAO1)
Experiment: MST

Substance: -24 nt-exsA RNA
- Kd: 529 nM
